Results from US11459586B2, “Methods for increasing efficiency of nuclease-mediated gene editing in stem cells” (President and Fellows of Harvard College, priority 2016, dated 2022).

What was measured:
human iPSC [1] = assay: mThy1 gene targeting in hiPSC co-transfected with DNA repair or viral inhibitor genes; assay type: cell-based
Procedure: FIGS. 9A-G. Effects of chemical and genetic inhibitors on mThy1 gene targeting in hiPSC. FIG. 9A. Mouse Thy1 gene targeting scheme. Human iPSC were nucleofected with the mThy1 targeting vector system plasmids and analyzed by flow cytometry five days later. The percentages of mThy1^+hThy1^−, mThy1^+hThy1^+, and mThy1^−hThy1^− cells for each sample (gated on live single cells) are graphed. Lines mark the percentage values for the control sample. FIGS. 9B-9D. Human iPSC were nucleofected with: 2 μg mThy1 targeting vector; 0.5 μg Cas9 plasmid; and 1.5 μg of sgRNA plasmids. The sample was divided into multiple wells and cultured in plain media (mTeSR1+10 μM Y-27632 ROCK inhibitor) supplemented with the indicated chemical inhibitor for three days. 20 μM pifithrin α, 200 μM peptide V5 (VPMLK, SEQ ID NO:31), 200 μM peptide control (IPMIK, SEQ ID NO:32), 50 μM TEMPOL, or the indicated concentrations of SCR7 or L755507 were used. FIG. 9B, mThy1^+hThy1^− (bottom portion of each bar in each graph), mThy1^+hThy1^+ (top portion of each bar in each graph). FIG. 9C, mThy1^+hThy1^− (bottom portion of each bar in each graph), mThy1^+hThy1^+ (top portion of each bar in left and center graphs, middle portion of each bar in right graph), and mThy1^−hThy1^− (top portion of each bar in right graph). FIG. 9D, mThy1^+hThy1^− (bottom portion of each bar in each graph), mThy1^+hThy1^+ (center portion of each bar in each graph), and mThy1^−hThy1^− (top portion of each bar in each graph). FIGS. 9E-9F. Human iPSC were nucleofected with: 2 μg mThy1 targeting vector plasmid; 0.5 μg Cas9 plasmid; 1 μg of sgRNA plasmids; and 0.5 μg of plasmid expressing the indicated DNA repair gene or pUC19 control (“Cas9 only”). For FIG. 9E, cultures were treated with 50 μM zVAD and 10 μM SB203580 post transfection. mThy1^+hThy1^− (bottom portion of each bar in each graph), mThy1^+hThy1^+ (top portion of each bar in left and center graphs, middle portion of each bar in right graph), and mThy1^−hThy1^− (top portion of each bar in right graph). FIG. 9F, mThy1^+hThy1^− (bottom portion of each bar in each graph), mThy1^+hThy1^+ (top portion of each bar in left and center graphs, middle portion of each bar in right graph), and mThy1^−hThy1^− (top portion of each bar in right graph). FIG. 9G. Human iPSC were nucleofected with: 2 μg mThy1 targeting vector plasmid; 0.5 μg Cas9 plasmid; and 1.5 μg of sgRNA plasmids. The indicated viral inhibitor genes were cloned into the Cas9 expression vector following an IRES sequence. Cultures were supplemented with 50 μM zVAD post transfection. mThy1^+hThy1^− (bottom portion of each bar in each graph), mThy1^+hThy1^+ (top portion of each bar in left and center graphs, middle portion of each bar in right graph), and mThy1^−hThy1^− (top portion of each bar in right graph). […]

human iPSC [2] = assay: gene disruption of hiPSC surface markers with truncated sgRNAs and Trex2 (flow cytometry); assay type: cell-based; conditions: 1 μg Trex2 plasmid with Cas9 and sgRNA plasmids, five days
Description: FIG. 12. Gene disruption activity of truncated sgRNAs with and without the Trex2 endonuclease. Full length (20 bp of target complementarity) and Truncated (18-19 bp) sgRNAs were designed to target the coding region of four genes expressed on the surface of hiPSC (top) and cloned into expression plasmids under the constitutive U6 promoter. The Cas9 nuclease and Trex2 endonuclease were also cloned into separate expression plasmids under the constitutive EF1α promoter. Human iPSC were nucleofected with 0.5 μg Cas9 plasmid, 1 μg sgRNA plasmid, and 1 μg of either pUC19 control or Trex2 plasmid. Five days later, cells were stained for expression of the surface markers (Thy 1, CD147, HLA-A2, or HLA-BC) and analyzed by flow cytometry gated on live single cells (open histograms). Shaded histograms indicate staining of an untargeted hiPSC control. The percent of cells that have lost expression of the surface markers is shown.
Pluripotency of iPSC cultures was verified by flow cytometry staining using anti-human Tra-1/60 PE (TRA-1-60, BD) and anti-human Oct3/4 eFluor 660 (EM92, eBioscience) with the fixation buffer sold under the trademark BD CYTOFIX™ and permeabilization buffer sold under the trademark PHOSFLOW™ Perm/Wash buffers. […] Viable cell counts were measured with the cell analyzer sold under the trademark MUSE® Count & Viability Assay kit (EMD Millipore). […]

[3] = 0.5 μg plasmid overexpressing the DNA repair gene, 50 μM zVAD and 10 μM SB203580 post transfection (FIG. 9E)

B1: Trex2: endonuclease Trex2, expressed from plasmid (protein, UniProt Q9BQ50 1-236, looked up)
Three prime repair …: MSEAPRAETFVFLDLEATGLPSVEPEIAELSLFAVHRSSLENPEHDESGALVLPRVLDKLTLCMCPERPFTAKASEITGLSSEGLARCRKAGFDGAVVRTLQAFLSRQAGPICLVAHNGFDYDFPLLCAELRRLGARLPRDTVCLDTLPALRGLDRAHSHGTRARGRQGYSLGSLFHRYFRAEPSAAHSAEGDVHTLLLIFLHRAAELLAWADEQARGWAHIEPMYLPPDDPSLEA
Q: With B1 as the molecule, how does the “mThy1 gene targeting efficiency” value (human iPSC [1]; Trex2 plasmid added (FIG. 9F)) read?
A: Its value is “reduced mThy1 gene targeting efficiency”.

Q: And the gene disruption frequencies (human iPSC [2])?
A: The gene disruption frequencies was “increased gene disruption frequencies”.

B2: CtIP: principal HR mediator, overexpressed from plasmid (protein, UniProt Q99708 1-897, looked up)
DNA endonuclease RBBP8: MNISGSSCGSPNSADTSSDFKDLWTKLKECHDREVQGLQVKVTKLKQERILDAQRLEEFFTKNQQLREQQKVLHETIKVLEDRLRAGLCDRCAVTEEHMRKKQQEFENIRQQNLKLITELMNERNTLQEENKKLSEQLQQKIENDQQHQAAELECEEDVIPDSPITAFSFSGVNRLRRKENPHVRYIEQTHTKLEHSVCANEMRKVSKSSTHPQHNPNENEILVADTYDQSQSPMAKAHGTSSYTPDKSSFNLATVVAETLGLGVQEESETQGPMSPLGDELYHCLEGNHKKQPFEESTRNTEDSLRFSDSTSKTPPQEELPTRVSSPVFGATSSIKSGLDLNTSLSPSLLQPGKKKHLKTLPFSNTCISRLEKTRSKSEDSALFTHHSLGSEVNKIIIQSSNKQILINKNISESLGEQNRTEYGKDSNTDKHLEPLKSLGGRTSKRKKTEEESEHEVSCPQASFDKENAFPFPMDNQFSMNGDCVMDKPLDLSDRFSAIQRQEKSQGSETSKNKFRQVTLYEALKTIPKGFSSSRKASDGNCTLPKDSPGEPCSQECIILQPLNKCSPDNKPSLQIKEENAVFKIPLRPRESLETENVLDDIKSAGSHEPIKIQTRSDHGGCELASVLQLNPCRTGKIKSLQNNQDVSFENIQWSIDPGADLSQYKMDVTVIDTKDGSQSKLGGETVDMDCTLVSETVLLKMKKQEQKGEKSSNEERKMNDSLEDMFDRTTHEEYESCLADSFSQAADEEEELSTATKKLHTHGDKQDKVKQKAFVEPYFKGDERETSLQNFPHIEVVRKKEERRKLLGHTCKECEIYYADMPAEEREKKLASCSRHRFRYIPPNTPENFWEVGFPSTQTCMERGYIKEDLDPCPRPKRRQPYNAIFSPKGKEQKT
Q: How did the “mThy1 gene targeting efficiency” value (human iPSC [1]; [3]) turn out when B2 was run?
A: Its value is “did not improve mThy1 gene targeting efficiency”.

B3: MRE11a: principal HR mediator, overexpressed from plasmid (protein, UniProt P49959 2-708, looked up)
Double-strand break repair …: STADALDDENTFKILVATDIHLGFMEKDAVRGNDTFVTLDEILRLAQENEVDFILLGGDLFHENKPSRKTLHTCLELLRKYCMGDRPVQFEILSDQSVNFGFSKFPWVNYQDGNLNISIPVFSIHGNHDDPTGADALCALDILSCAGFVNHFGRSMSVEKIDISPVLLQKGSTKIALYGLGSIPDERLYRMFVNKKVTMLRPKEDENSWFNLFVIHQNRSKHGSTNFIPEQFLDDFIDLVIWGHEHECKIAPTKNEQQLFYISQPGSSVVTSLSPGEAVKKHVGLLRIKGRKMNMHKIPLHTVRQFFMEDIVLANHPDIFNPDNPKVTQAIQSFCLEKIEEMLENAERERLGNSHQPEKPLVRLRVDYSGGFEPFSVLRFSQKFVDRVANPKDIIHFFRHREQKEKTGEEINFGKLITKPSEGTTLRVEDLVKQYFQTAEKNVQLSLLTERGMGEAVQEFVDKEEKDAIEELVKYQLEKTQRFLKERHIDALEDKIDEEVRRFRETRQKNTNEEDDEVREAMTRARALRSQSEESASAFSADDLMSIDLAEQMANDSDDSISAATNKGRGRGRGRRGGRGQNSASRGGSQRGRADTGLETSTRSRNSKTAVSASRNMSIIDAFKSTRQQPSRNVTTKNYSEVIEVDESDVEEDIFPTTSKTDQRWSSTSSSKIMSQSQVSKGVDFESSEDDDDDPFMNTSSLRRNRR
Q: How did the “mThy1 gene targeting efficiency” value (human iPSC [1]; [3]) turn out when B3 was run?
A: Its value is “did not improve mThy1 gene targeting efficiency”.

B4: Rad51: DNA repair gene overexpressed from plasmid (protein, UniProt Q06609 2-339, looked up)
DNA repair protein RAD51 …: AMQMQLEANADTSVEEESFGPQPISRLEQCGINANDVKKLEEAGFHTVEAVAYAPKKELINIKGISEAKADKILAEAAKLVPMGFTTATEFHQRRSEIIQITTGSKELDKLLQGGIETGSITEMFGEFRTGKTQICHTLAVTCQLPIDRGGGEGKAMYIDTEGTFRPERLLAVAERYGLSGSDVLDNVAYARAFNTDHQTQLLYQASAMMVESRYALLIVDSATALYRTDYSGRGELSARQMHLARFLRMLLRLADEFGVAVVITNQVVAQVDGAAMFAADPKKPIGGNIIAHASTTRLYLRKGRGETRICKIYDSPCLPEAEAMFAINADGVGDAKD
Q: How did the “mThy1 gene targeting efficiency” value (human iPSC [1]; [3]) turn out when B4 was run?
A: The value was “reduced gene targeting efficiency”.
